Measured values from publication PMC3764422, “A model of yeast glycolysis based on a consistent kinetic characterisation of all its enzymes” (Febs Letters, 2013).

Columns and labels:
Experiment in all cases: purified protein
Format in all cases: biochemical, Saccharomyces cerevisiae
[1] = substrate: CC=O; conditions: standardised reaction buffer, 30 °C, co-substrate NADH
[2] = substrate: C=C(OP(=O)(O)O)C(=O)O; conditions: standardised reaction buffer, 30 °C, co-substrate ADP
[3] = substrate: O=C(CO)COP(=O)(O)O; conditions: standardised reaction buffer, 30 °C, measured in-house, also reported in Mendes et al. [42]

B1: Adh1p (Saccharomyces cerevisiae S288C) (protein)
chain: SIPETQKGVIFYESHGKLEYKDIPVPKPKANELLINVKYSGVCHTDLHAWHGDWPLPVKLPLVGGHEGAGVVVGMGENVKGWKIGDYAGIKWLNGSCMACEYCELGNESNCPHADLSGYTHDGSFQQYATADAVQAAHIPQGTDLAQVAPILCAGITVYKALKSANLMAGHWVAISGAAGGLGSLAVQYAKAMGYRVLGIDGGEGKEELFRSIGGEVFIDFTKEKDIVGAVLKATDGGAHGVINVSVSEAAIEASTRYVRANGTTVLVGMPAGAKCCSDVFNQVVKSISIVGSYVGNRADTREALDFFARGLVKSPIKVVGLSTLPEIYEKMEKGQIVGRYVVDTSK
notes: tagged full-length ORF, expressed in and purified from S. cerevisiae
For B1, the Km [1] was 0.462 (SEM 5.3%) mM and the kcat [1] was 176 s⁻¹.

B2: Cdc19p (Saccharomyces cerevisiae S288C) (protein)
chain: SRLERLTSLNVVAGSDLRRTSIIGTIGPKTNNPETLVALRKAGLNIVRMNFSHGSYEYHKSVIDNARKSEELYPGRPLAIALDTKGPEIRTGTTTNDVDYPIPPNHEMIFTTDDKYAKACDDKIMYVDYKNITKVISAGRIIYVDDGVLSFQVLEVVDDKTLKVKALNAGKICSHKGVNLPGTDVDLPALSEKDKEDLRFGVKNGVHMVFASFIRTANDVLTIREVLGEQGKDVKIIVKIENQQGVNNFDEILKVTDGVMVARGDLGIEIPAPEVLAVQKKLIAKSNLAGKPVICATQMLESMTYNPRPTRAEVSDVGNAILDGADCVMLSGETAKGNYPINAVTTMAETAVIAEQAIAYLPNYDDMRNCTPKPTSTTETVAASAVAAVFEQKAKAIIVLSTSGTTPRLVSKYRPNCPIILVTRCPRAARFSHLYRGVFPFVFEKEPVSDWTDDVEARINFGIEKAKEFGILKKGDTYVSIQGFKAGAGHSNTLQVSTV
notes: as for B1
In the case of B2, the Km [2] is reported as 0.281 (SEM 12%) mM and the kcat [2] is reported as 20.1 s⁻¹.

B3: Tpi1p (Saccharomyces cerevisiae S288C) (protein)
chain: ARTFFVGGNFKLNGSKQSIKEIVERLNTASIPENVEVVICPPATYLDYSVSLVKKPQVTVGAQNAYLKASGAFTGENSVDQIKDVGAKWVILGHSERRSYFHEDDKFIADKTKFALGQGVGVILCIGETLEEKKAGKTLDVVERQLNAVLEEVKDWTNVVVAYEPVWAIGTGLAATPEDAQDIHASIRKFLASKLGDKAASELRILYGGSANGSNAVTFKDKADVDGFLVGGASLKPEFVDIINSRN
notes: as for B1
In the case of B3, the Km [3] is reported as 6.45 (SEM 5%) mM.
